The values that follow come from paper PMC2175261 (The Journal of Cell Biology, 2000).

Where two headings read alike, the source gives them in different places.

Data set [1] deals with the molecule itself. Nature of the data set: pull-down.
Data set [2] deals with the molecule itself. Nature of the data set: pull-down. The source holds these as a separate data set.

B1: C2B domain of synaptotagmin Ib (residues 248–421) (domain or fragment, rat, UniProt P21707 248-421, looked up)
chain: NTVDFGHVTEEWRDLQSAEKEEQEKLGDICFSLRYVPTAGKLTVVILEAKNLKKMDVGGLSDPYVKIHLMQNGKRLKKKKTTIKKNTLNPYYNESFSFEVPFEQIQKVQVVVTVLDYDKIGKNDAIGKVFVGYNSTGAELRHWSDMLANPRRPIAQWHTLQVEEEVDAMLAVKK
For B1, in “pull-down [1]”, the binding result is reported as “binds”.

B2: cytoplasmic domain of synaptotagmin Ib, D230,232N mutant (domain or fragment, rat, UniProt P21707 96-421, looked up)
chain: GGKNAINMKDVKDLGKTMKDQALKDDDAETGLTDGEEKEEPKEEEKLGKLQYSLDYDFQNNQLLVGIIQAAELPALDMGGTSDPYVKVFLLPDKKKKFETKVHRKTLNPVFNEQFTFKVPYSELGGKTLVMAVYNFNRFSKHDIIGEFKVPMNTVDFGHVTEEWRDLQSAEKEEQEKLGDICFSLRYVPTAGKLTVVILEAKNLKKMDVGGLSDPYVKIHLMQNGKRLKKKKTTIKKNTLNPYYNESFSFEVPFEQIQKVQVVVTVLDYDKIGKNDAIGKVFVGYNSTGAELRHWSDMLANPRRPIAQWHTLQVEEEVDAMLAVKK
Regarding B2, the binding result in “pull-down [2]” was “binds”.
